Experimental data as given in patent US20030082683A1.

Target: hIK1 intermediate conductance, calcium-activated potassium channel (human) (UniProt O15554)
Experiment: cell-based or functional assay

Chain of hIK1 intermediate conductance, calcium-activated potassium channel (human) (O15554 other isoform, or with tags, fused parts or gaps): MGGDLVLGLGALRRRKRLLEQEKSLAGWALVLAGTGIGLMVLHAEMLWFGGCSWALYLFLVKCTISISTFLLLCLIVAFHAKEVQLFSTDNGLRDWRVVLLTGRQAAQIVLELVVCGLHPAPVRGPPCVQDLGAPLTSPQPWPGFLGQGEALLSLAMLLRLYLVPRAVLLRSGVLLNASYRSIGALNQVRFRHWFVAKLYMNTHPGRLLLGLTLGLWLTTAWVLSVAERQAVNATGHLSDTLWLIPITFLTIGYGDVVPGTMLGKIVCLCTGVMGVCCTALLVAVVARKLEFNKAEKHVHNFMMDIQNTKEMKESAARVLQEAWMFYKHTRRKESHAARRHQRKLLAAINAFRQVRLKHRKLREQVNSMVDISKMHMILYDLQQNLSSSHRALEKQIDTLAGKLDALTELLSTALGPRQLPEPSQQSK
Chain of iberiotoxin (P24663 whole entry): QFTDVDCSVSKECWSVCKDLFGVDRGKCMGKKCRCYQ

## iberiotoxin (from UniProt P24663 1-37) (peptide)
  percent block of hIK1 current at 50 nM IBX: 15%
